The target in the assay is T1, S-tag-KLCR1 (Arabidopsis thaliana, UniProt O81629 1-609).
T1 sequence: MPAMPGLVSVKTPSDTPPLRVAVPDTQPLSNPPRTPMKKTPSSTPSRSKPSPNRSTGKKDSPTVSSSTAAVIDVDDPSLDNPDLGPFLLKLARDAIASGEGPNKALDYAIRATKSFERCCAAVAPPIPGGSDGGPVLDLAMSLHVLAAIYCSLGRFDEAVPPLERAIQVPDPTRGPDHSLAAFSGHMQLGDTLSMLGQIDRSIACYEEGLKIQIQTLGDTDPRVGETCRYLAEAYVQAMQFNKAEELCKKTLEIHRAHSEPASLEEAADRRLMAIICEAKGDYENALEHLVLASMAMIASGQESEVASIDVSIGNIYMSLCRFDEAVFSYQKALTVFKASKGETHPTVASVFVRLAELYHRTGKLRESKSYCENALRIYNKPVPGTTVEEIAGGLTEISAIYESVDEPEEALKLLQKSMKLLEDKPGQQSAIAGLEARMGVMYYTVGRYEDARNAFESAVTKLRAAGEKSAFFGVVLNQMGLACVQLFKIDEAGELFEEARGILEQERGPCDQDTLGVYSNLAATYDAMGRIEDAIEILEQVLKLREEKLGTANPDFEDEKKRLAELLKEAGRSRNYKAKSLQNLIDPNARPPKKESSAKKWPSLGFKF
Description: co-sedimentation.

B1: His8-SUMO (HS)-IQD2 (natural protein)
chain: MGKKAKWFSSVKKAFSPDSKKSKQKLAEGQNGVISNPPVVDNVRQSSSSPPPALAPREVRVAEVIVERNRDLSPPSTADAVNVTATDVPVVPSSSAPGVVRRATPTRFAGKSNEEAAAILIQTIFRGYLARRALRAMRGLVRLKLLMEGSVVKRQAANTLKCMQTLSRVQSQIRARRIRMSEENQARQKQLLQKHAKELAGLKNGDNWNDSIQSKEKVEANLLSKYEATMRRERALAYSYSHQQNWKNNSKSGNPMFMDPSNPTWGWSWLERWMAGRPLESSEKEQSNSNNDNAASVKGSINRNEAAKSLTRNGSTQPNTPSSARGTPRNKNSFFSPPTPSRLNQSSRKSNDDDSKSTISVLSERNRRHSIAGSSVRDDESLAGSPALPSYMVPTKSARARLKPQSPLGGTTQENEGFTDKASAKKRLSYPTSPALPKPRRFSAPPKVESGGVTVTNGAGS
For B1, the binding result is “binds”.
